Source: paper PMC2175354

Tests used:
Assay in all cases: EMSA
MyoD full-length = MyoD full-length (Mus musculus, UniProt P10085 1-318)
MyoD ΔR3 = MyoD ΔR3 (Mus musculus, UniProt P10085 1-318, del119-121)
MyoD Δ102-114 = MyoD Δ102-114 (UniProt P10085 1-318, del102-114)
MyoD bHLH domain = MyoD bHLH domain (UniProt P10085 102-162)
MyoD ΔR2R3 = MyoD ΔR2R3 (Mus musculus, UniProt P10085 1-318, del110-112;del119-121)
MyoD ΔR1R2R3 = MyoD ΔR1R2R3 (Mus musculus, UniProt P10085 1-318, del102-104;del110-112;del119-121)
MyoD ΔR1R3 = MyoD ΔR1R3 (Mus musculus, UniProt P10085 1-318, del102-104;del119-121)
[1] = molecular target: MyoD Δ3-56 (activation region deleted) (Mus musculus, UniProt P10085 1-318, del3-56)
[2] = molecular target: MyoD Δ1-93 (activation and C/H regions deleted) (Mus musculus, UniProt P10085 94-318, del1-93)
MyoD R111C = MyoD R111C (Mus musculus, UniProt P10085 1-318, R111C)
[3] = molecular target: MyoD Δ1-121 (activation, C/H and basic regions deleted) (Mus musculus, UniProt P10085 122-318, del1-121)

B1: E-box DNA (dsDNA)
DNA 1: TCGATCCCCCAACACCTGCTGCCTGA
DNA 2: TCAGGCAGCAGGTGTTGGGGGATCGA
binding result (MyoD full-length): binds
binding result (MyoD ΔR3): no binding
binding result (MyoD Δ102-114): no binding
binding result (MyoD bHLH domain): binds
binding result (MyoD ΔR2R3): no binding
binding result (MyoD ΔR1R2R3): no binding
binding result (MyoD ΔR1R3): no binding
binding result [1]: binds
binding result [2]: binds
binding result (MyoD R111C): no binding
binding result [3]: no binding
